Among the data in patent publication US20020187934A1 are concentration showing significant binding values, retold here.

The test has as its target purified HLA-DR4Dw4 (human). In words: Test A: competition with biotin-FHA307-320 for purified HLA-DR4Dw4, ELISA read-out.

As to “Phv-Arg-Ala-IIb-Thr-Ala-Ala-Ala-Papa-NH2 (SEQ ID NO:1) (peptide)”, the concentration showing significant binding is < 0.1 µM.
